In patent US20200181259A1:
Where two headings read alike, the source gives them in different places.

Tests used:
[1] = target: human CD47 overexpressed on CHO cells (human) (UniProt Q08722); experiment: flow cytometry competition on CHO-hCD47 cells against 200 nM mouse Fc-labelled SIRPα
[2] = target: human CD47 overexpressed on CHO cells (human) (UniProt Q08722); experiment: as above; remark: listed apart in the source

IC50 [1]: 1.77 nM
IC50 [2]: 3.38 nM
B1: AB6.12, control humanized anti-CD47 antibody transiently expressed in 293 HEK cells (antibody, from another filing, V domains shown)
VH: QMQLVQSGAEVKKTGSSVKVSCKASGFNIKDYYLHWVRQAPGQALEWMGWIDPDQGDTEYAQKFQDRVTITRDRSMSTAYMELSSLRSEDTAMYYCNAAYGSSSYPMDYWGQGTTVTV
VL: NIQMTQSPSAMSASVGDRVTITCKASQDIHRYLSWFQQKPGKVPKHLIYRANRLVSGVPSRFSGSGSGTEFTLTISSLQPEDFATYYCLQYDEFPYTFGGGTKVEIK
